Our source for the Kcat and Km values is US8008547B2, “Glyphosate-N-acetyltransferase (GAT) genes” (E.I. duPont de Nemours, priority 2000, dated 2011).

Residue numbers refer to the chain shown, from its start.

A word on the Km: it is the substrate concentration at which the rate is half of its maximum.

A short description of this data set: Standard protocol for determination of kcat and KM (continuous spectrophotometric assay, Acetyl CoA hydrolysis at 235 nm). Particulars: purified protein, about 23° C., 0.2 mM acetyl CoA; for Kcat: 20 mM HEPES pH 6.8, 10% ethylene glycol; for Km: pH 6.8, glyphosate 0.125 to 10 mM. It counts as biochemical. In short, it runs like this:
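KM from initial rates over 0.125–10 mM glyphosate, fitted by Lineweaver-Burke transformation of Michaelis-Menten; kcat/KM computed as kcat divided by KM. Continuous spectrophotometric read of acetyl-CoA hydrolysis at 235 nm.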

B1: SEQ ID NO: 301: GAT polypeptide (protein)
chain: MIEVKPINAEDTYEIRHRILRPNQPLEACMYETDLLRSAFHLGGYYRGKLISIASFHQAEHPELEGQKQYQLRGMATLEEYREQKAGSTLIRHAEELLRKKGADLLWCNARTSASGYYKKLGFSEQGEVYDTPPVGPHILMYKKLT
modifications: 13_7A7
notes: GAT polypeptide
With B1, the Kcat was determined as 1.95 s⁻¹ and the Michaelis constant (Km) was determined as 500 µM.

B2: SEQ ID NO: 309: GAT polypeptide (protein)
chain: B1 chain with M30K, R37G, A39T, I51V, E96A, V135T
modifications: 14_11C2
notes: GAT polypeptide
Take B2: the Kcat was 1.812 s⁻¹ and the Michaelis constant (Km) was 1000 µM.

B3: SEQ ID NO: 306: GAT polypeptide (protein)
chain: B1 chain with M30K, S38G
modifications: 14_10C9
notes: GAT polypeptide
Take B3: the Kcat was 2.12 s⁻¹ and the Michaelis constant (Km) stood at 900 µM.

B4: SEQ ID NO: 319: GAT polypeptide (protein)
chain: B1 chain with M30K, S38G, I51V, Q67L, E80G, V135T
modifications: 14_7A11
notes: GAT polypeptide
Consider B4, for which the Kcat was 3.287 s⁻¹ and the Km is 3700 µM.

B5: SEQ ID NO: 308: GAT polypeptide (protein)
chain: B1 chain with M30K, S38G, I51V, E80G
modifications: 14_10H9
notes: GAT polypeptide
As for B5, the Kcat stood at 2.12 s⁻¹ and the Michaelis constant (Km) turned out to be 1100 µM.

B6: SEQ ID NO: 307: GAT polypeptide (protein)
chain: B1 chain with M30K, S38G, I51V
modifications: 14_10H3
notes: GAT polypeptide
As for B6, the Kcat amounted to 1.753 s⁻¹ and the Km is 600 µM.

B7: SEQ ID NO: 284: GAT polypeptide (protein)
chain: MIEVKPINAEDTYEIRHRILRPNQPLEACMYETDLLGGTFHLGGYYQGKLISIASFHQAEHSELEGQKQYQLRGMATLEGYREQKAGSTLIRHAEELLRKKGADLLWCNARTSASGYYEKLGFSEQGGVYDIPPIGPHILMYKKLA
modifications: 11G3
notes: GAT polypeptide
As to B7, the Kcat is 0.26 s⁻¹ and the Michaelis-Menten constant (Km) is 1700 µM.

B8: SEQ ID NO: 318: GAT polypeptide (protein)
chain: B1 chain with M30K, R37G, S38G, A39T, H57N, E80G, E96A
modifications: 14_6D4
notes: GAT polypeptide
Regarding B8, the Kcat stood at 4.27 s⁻¹ and the Michaelis constant (Km) amounted to 1000 µM.

B9: SEQ ID NO: 298: GAT polypeptide (protein)
chain: B7 chain with T39A, Q47R, E119K, A146T
modifications: 1_2H6
notes: GAT polypeptide
B9: the Kcat turned out to be 0.155 s⁻¹ and the Michaelis constant (Km) was found to be 900 µM.

B10: SEQ ID NO: 285: GAT polypeptide (protein)
chain: B7 chain with T39A, Q58K, A114V, S115R, A146T
modifications: 11H3
notes: GAT polypeptide
Regarding B10, the Kcat amounted to 0.02 s⁻¹ and the Km came out at 1400 µM.

B11: SEQ ID NO: 297: GAT polypeptide (protein)
chain: B7 chain with M30K, Q58K, A114V, E119K, G128E, A146T
modifications: 12G7
notes: GAT polypeptide
B11: the Kcat amounted to 0.0383 s⁻¹ and the Km came out at 3700 µM.

B12: SEQ ID NO: 317: GAT polypeptide (protein)
chain: B7 chain with M30K, Q47R, S62P, E119K, I132M, I135V, A146T
modifications: 14_6B10
notes: GAT polypeptide
As to B12, the Kcat worked out at 2.245 s⁻¹ and the Km was found to be 1400 µM.

B13: SEQ ID NO: 299: GAT polypeptide (protein)
chain: B1 chain with R37G, S38G, A39T, H57N, T132I, Y142H
modifications: 13_12G12
notes: GAT polypeptide
B13: the Kcat stood at 0.602 s⁻¹ and the Km worked out at 690 µM.

B14: SEQ ID NO: 296: GAT polypeptide (protein)
chain: B7 chain with Q58K, A114V, E119K, V129I, A146T
modifications: 12F5
notes: GAT polypeptide
Turning to B14, the Kcat was determined as 0.0517 s⁻¹ and the Michaelis-Menten constant (Km) was 1800 µM.

B15: SEQ ID NO: 294: GAT polypeptide (protein)
chain: B7 chain with M30K, Q47R, S62P, E119K, I135T, A146T
modifications: 12_7D6
notes: GAT polypeptide
Take B15: the Kcat is 0.898 s⁻¹ and the Michaelis-Menten constant (Km) was 1400 µM.

B16: SEQ ID NO: 288: GAT polypeptide (protein)
chain: B7 chain with M30K, Q47R, S62P, E119K, I135V, A146T
modifications: 12_3F1
notes: GAT polypeptide
In the case of B16, the Kcat came out at 0.735 s⁻¹ and the Km stood at 900 µM.

B17: SEQ ID NO: 287: GAT polypeptide (protein)
chain: B1 chain with M30K, R37G, S38G, A39T, I51V, E80G
modifications: 12_2G9
notes: GAT polypeptide
With B17, the Kcat is 2.523 s⁻¹ and the Michaelis-Menten constant (Km) stood at 1500 µM.

B18: SEQ ID NO: 313: GAT polypeptide (protein)
chain: B1 chain with M30K, S38G, I51V, E80G, T132I, V135T
modifications: 14_2G11
notes: GAT polypeptide
Take B18: the Kcat was found to be 1.16 s⁻¹ and the Michaelis constant (Km) turned out to be 1400 µM.

B19: SEQ ID NO: 305: GAT polypeptide (protein)
chain: B1 chain with M30K, R37G, S38G, A39T, T132I
modifications: 13_9F6
notes: GAT polypeptide
Regarding B19, the Kcat turned out to be 0.983 s⁻¹ and the Michaelis constant (Km) turned out to be 1300 µM.

B20: SEQ ID NO: 303: GAT polypeptide (protein)
chain: B1 chain with M30K, S38G, E80G, S115R, T132I, V135T
modifications: 13_7C1
notes: GAT polypeptide
Turning to B20, the Kcat was found to be 0.802 s⁻¹ and the Km worked out at 1500 µM.

B21: SEQ ID NO: 291: GAT polypeptide (protein)
chain: B1 chain with R37G, S38G, A39T, E128G, T132I
modifications: 12_6D1
notes: GAT polypeptide
Turning to B21, the Kcat was 0.817 s⁻¹ and the Km was 1200 µM.

B22: SEQ ID NO: 304: GAT polypeptide (protein)
chain: B7 chain with M30K, L35S, Q47R, H57N, S62P, E119K, I135V, A146T
modifications: 13_8G6
notes: GAT polypeptide
Turning to B22, the Kcat came to 0.562 s⁻¹ and the Michaelis-Menten constant (Km) was determined as 610 µM.

B23: SEQ ID NO: 302: GAT polypeptide (protein)
chain: B1 chain with M30K, R37G, A39T, E80G, T132I, V135T
modifications: 13_7B12
notes: GAT polypeptide
Consider B23, for which the Kcat is 1.15 s⁻¹ and the Km was found to be 1700 µM.

B24: SEQ ID NO: 292: GAT polypeptide (protein)
chain: B7 chain with M30K, Q47R, S62P, E119K, G128E, I135T, A146T
modifications: 12_6F9
notes: GAT polypeptide
B24: the Kcat was found to be 1.48 s⁻¹ and the Km amounted to 1900 µM.

B25: SEQ ID NO: 310: GAT polypeptide (protein)
chain: B7 chain with M30K, Q47R, I51V, S62P, E96A, E119K, S124R, I135V, A146T
modifications: 14_12D8
notes: GAT polypeptide
Take B25: the Kcat worked out at 1.04 s⁻¹ and the Km was 1000 µM.

B26: SEQ ID NO: 314: GAT polypeptide (protein)
chain: B1 chain with M30K, S38G, I51V, E80G, E96A, E128G, T132I, V135A
modifications: 14_3B2
notes: GAT polypeptide
Regarding B26, the Kcat turned out to be 1.14 s⁻¹ and the Michaelis constant (Km) came to 850 µM.

B27: SEQ ID NO: 293: GAT polypeptide (protein)
chain: B7 chain with M30K, Q47R, I51V, S62P, E96A, E119K, G128E, I135T, A146T
modifications: 12_6H6
notes: GAT polypeptide
For B27, the Kcat was found to be 1.51 s⁻¹ and the Km is 1600 µM.

B28: SEQ ID NO: 316: GAT polypeptide (protein)
chain: B1 chain with R37G, S38G, A39T, I51V, H57N, E80G, I139V
modifications: 14_6A8
notes: GAT polypeptide
With B28, the Kcat amounted to 0.728 s⁻¹ and the Km was found to be 780 µM.

B29: SEQ ID NO: 312: GAT polypeptide (protein)
chain: B7 chain with M30K, Q47R, H57N, S62P, E119K, I135V, A146T
modifications: 14_2B6
notes: GAT polypeptide
On to B29, for which the Kcat was determined as 0.57 s⁻¹ and the Km stood at 630 µM.

B30: SEQ ID NO: 311: GAT polypeptide (protein)
chain: B1 chain with M30K, R37G, S38G, T132I, V135T
modifications: 14_12H6
notes: GAT polypeptide
As for B30, the Kcat came out at 1.52 s⁻¹ and the Km was found to be 900 µM.

B31: SEQ ID NO: 290: GAT polypeptide (protein)
chain: B7 chain with M30K, Q47R, I51V, S62P, E119K, I135V, A146T
modifications: 12_6A10
notes: GAT polypeptide
With B31, the Kcat worked out at 0.912 s⁻¹ and the Km is 1100 µM.

B32: SEQ ID NO: 286: GAT polypeptide (protein)
chain: B7 chain with M30K, Q47R, S62P, E119K, G128E, Y130H, I135T, A146T
modifications: 12_1F9
notes: GAT polypeptide
Regarding B32, the Kcat is 1.34 s⁻¹ and the Km was determined as 3000 µM.

B33: SEQ ID NO: 289: GAT polypeptide (protein)
chain: B1 chain with M30K, R37G, S38G, A39T, T132A, V135T
modifications: 12_5C10
notes: GAT polypeptide
Regarding B33, the Kcat came out at 1.49 s⁻¹ and the Michaelis constant (Km) is 1500 µM.

B34: SEQ ID NO: 295: GAT polypeptide (protein)
chain: B1 chain with M30K, R37G, S38G, A39T, P62S, E80G
modifications: 12_7G11
notes: GAT polypeptide
On to B34, for which the Kcat is 3.908 s⁻¹ and the Km came out at 2000 µM.

B35: SEQ ID NO: 315: GAT polypeptide (protein)
chain: B1 chain with M30K, R37G, A39T, E80G
modifications: 14_4H8
notes: GAT polypeptide
With B35, the Kcat amounted to 3.313 s⁻¹ and the Km was found to be 2000 µM.
